The target in experiment [1] is human GLP-1 receptor (hGLP-1R) (human, UniProt P43220 24-463). Put plainly: cell-based or functional assay.
The target of experiment [2] is human glucagon receptor (hGCGR) (human, UniProt P47871 26-477). Put plainly: cell-based or functional assay.

The record followed here is patent US20230357348A1 (AstraZeneca / MedImmune, published 2023).

Starred links: 1 amine or outer side, 2 acyl side, 3 side chain; linkers in the order of their positions; H or OH if unused. Non-standard residues stand in square brackets, D forms with d. Groups on a side chain read outwards from the residue. No end group written: not given here. *: point of attachment. C20 diacid = O=C(O)CCCCCCCCCCCCCCCCCCC(=O)*; C18 diacid = O=C(O)CCCCCCCCCCCCCCCCC(=O)*; γGlu = O=C(O)[C@H](CCC(=O)[*:2])N[*:1]; αMeF = C[C@](N)(Cc1ccccc1)C(=O)O; AEEA = NCCOCCOCC(=O)O; Aib = CC(C)(N)C(=O)O

Sequence of human glucagon receptor (hGCGR) (P47871 26-477): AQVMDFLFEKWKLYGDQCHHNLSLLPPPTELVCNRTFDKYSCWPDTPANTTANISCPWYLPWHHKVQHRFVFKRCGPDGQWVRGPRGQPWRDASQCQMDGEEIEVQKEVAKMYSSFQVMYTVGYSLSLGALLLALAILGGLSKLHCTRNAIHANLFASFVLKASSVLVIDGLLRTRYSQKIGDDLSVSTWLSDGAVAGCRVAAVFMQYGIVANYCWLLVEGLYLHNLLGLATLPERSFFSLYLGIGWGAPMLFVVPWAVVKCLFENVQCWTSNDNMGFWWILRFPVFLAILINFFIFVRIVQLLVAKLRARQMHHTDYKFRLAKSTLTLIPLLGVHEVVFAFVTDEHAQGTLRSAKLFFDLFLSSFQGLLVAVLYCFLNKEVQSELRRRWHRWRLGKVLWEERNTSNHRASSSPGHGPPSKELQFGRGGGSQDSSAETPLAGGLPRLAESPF

B1: Peptide 472 (peptide)
peptide: H[Aib]QGTFTSDVSK[αMeF]LDKK([AEEA-AEEA-γGlu-C18 diacid])RARDFVQWLL[Aib]E-NH2
modifications: N-terminus assumed
SMILES: CC(C)C[C@H](NC(=O)[C@H](Cc1c[nH]c2ccccc12)NC(=O)[C@H](CCC(N)=O)NC(=O)[C@@H](NC(=O)[C@H](Cc1ccccc1)NC(=O)[C@H](CC(=O)O)NC(=O)[C@H](CCCNC(=N)N)NC(=O)[C@H](C)NC(=O)[C@H](CCCNC(=N)N)NC(=O)[C@H](CCCCNC(=O)COCCOCCNC(=O)COCCOCCNC(=O)CC[C@H](NC(=O)CCCCCCCCCCCCCCCCC(=O)O)C(=O)O)NC(=O)[C@H](CCCCN)NC(=O)[C@H](CC(=O)O)NC(=O)[C@H](CC(C)C)NC(=O)[C@](C)(Cc1ccccc1)NC(=O)[C@H](CCCCN)NC(=O)[C@H](CO)NC(=O)[C@@H](NC(=O)[C@H](CC(=O)O)NC(=O)[C@H](CO)NC(=O)[C@@H](NC(=O)[C@H](Cc1ccccc1)NC(=O)[C@@H](NC(=O)CNC(=O)[C@H](CCC(N)=O)NC(=O)C(C)(C)NC(=O)[C@@H](N)Cc1c[nH]cn1)[C@@H](C)O)[C@@H](C)O)C(C)C)C(C)C)C(=O)N[C@@H](CC(C)C)C(=O)NC(C)(C)C(=O)N[C@@H](CCC(=O)O)C(N)=O
Turning to B1, the “hGLP-1R EC50 (pM)” value in experiment [1] worked out at 7.63 pM. Also, the “hGluc-R EC50 (pM)” value in experiment [2] was 11.1 pM.

B2: Peptide 465 (peptide)
peptide: H[Aib]QGTFTSDVSK[αMeF]LDLK([AEEA-AEEA-γGlu-γGlu-C18 diacid])RAQDFVQWLL[Aib]T-OH
modifications: N-terminus assumed
SMILES: CC(C)C[C@H](NC(=O)[C@H](CC(=O)O)NC(=O)[C@H](CC(C)C)NC(=O)[C@](C)(Cc1ccccc1)NC(=O)[C@H](CCCCN)NC(=O)[C@H](CO)NC(=O)[C@@H](NC(=O)[C@H](CC(=O)O)NC(=O)[C@H](CO)NC(=O)[C@@H](NC(=O)[C@H](Cc1ccccc1)NC(=O)[C@@H](NC(=O)CNC(=O)[C@H](CCC(N)=O)NC(=O)C(C)(C)NC(=O)[C@@H](N)Cc1c[nH]cn1)[C@@H](C)O)[C@@H](C)O)C(C)C)C(=O)N[C@@H](CCCCNC(=O)COCCOCCNC(=O)COCCOCCNC(=O)CC[C@H](NC(=O)CC[C@H](NC(=O)CCCCCCCCCCCCCCCCC(=O)O)C(=O)O)C(=O)O)C(=O)N[C@@H](CCCNC(=N)N)C(=O)N[C@@H](C)C(=O)N[C@@H](CCC(N)=O)C(=O)N[C@@H](CC(=O)O)C(=O)N[C@@H](Cc1ccccc1)C(=O)N[C@H](C(=O)N[C@@H](CCC(N)=O)C(=O)N[C@@H](Cc1c[nH]c2ccccc12)C(=O)N[C@@H](CC(C)C)C(=O)N[C@@H](CC(C)C)C(=O)NC(C)(C)C(=O)N[C@H](C(=O)O)[C@@H](C)O)C(C)C
Take B2: the “hGLP-1R EC50 (pM)” value in experiment [1] is 485 pM. Also, the “hGluc-R EC50 (pM)” value in experiment [2] amounted to 436 pM.

B3: Peptide 466 (peptide)
peptide: H[Aib]QGTFTSDVSK[αMeF]LDTK([AEEA-AEEA-γGlu-C18 diacid])RAQDFVQWLLE[Aib]G-NH2
modifications: N-terminus assumed
SMILES: CC(C)C[C@H](NC(=O)[C@H](Cc1c[nH]c2ccccc12)NC(=O)[C@H](CCC(N)=O)NC(=O)[C@@H](NC(=O)[C@H](Cc1ccccc1)NC(=O)[C@H](CC(=O)O)NC(=O)[C@H](CCC(N)=O)NC(=O)[C@H](C)NC(=O)[C@H](CCCNC(=N)N)NC(=O)[C@H](CCCCNC(=O)COCCOCCNC(=O)COCCOCCNC(=O)CC[C@H](NC(=O)CCCCCCCCCCCCCCCCC(=O)O)C(=O)O)NC(=O)[C@@H](NC(=O)[C@H](CC(=O)O)NC(=O)[C@H](CC(C)C)NC(=O)[C@](C)(Cc1ccccc1)NC(=O)[C@H](CCCCN)NC(=O)[C@H](CO)NC(=O)[C@@H](NC(=O)[C@H](CC(=O)O)NC(=O)[C@H](CO)NC(=O)[C@@H](NC(=O)[C@H](Cc1ccccc1)NC(=O)[C@@H](NC(=O)CNC(=O)[C@H](CCC(N)=O)NC(=O)C(C)(C)NC(=O)[C@@H](N)Cc1c[nH]cn1)[C@@H](C)O)[C@@H](C)O)C(C)C)[C@@H](C)O)C(C)C)C(=O)N[C@@H](CC(C)C)C(=O)N[C@@H](CCC(=O)O)C(=O)NC(C)(C)C(=O)NCC(N)=O
B3: the “hGLP-1R EC50 (pM)” value in experiment [1] was 35.6 pM. Further, the “hGluc-R EC50 (pM)” value in experiment [2] was 131 pM.

B4: Peptide 470 (peptide)
peptide: H[Aib]QGTFTSDVSK[αMeF]LDKK([AEEA-AEEA-γGlu-C20 diacid])RARDFVQWLL[Aib]E-NH2
modifications: N-terminus assumed
SMILES: CC(C)C[C@H](NC(=O)[C@H](Cc1c[nH]c2ccccc12)NC(=O)[C@H](CCC(N)=O)NC(=O)[C@@H](NC(=O)[C@H](Cc1ccccc1)NC(=O)[C@H](CC(=O)O)NC(=O)[C@H](CCCNC(=N)N)NC(=O)[C@H](C)NC(=O)[C@H](CCCNC(=N)N)NC(=O)[C@H](CCCCNC(=O)COCCOCCNC(=O)COCCOCCNC(=O)CC[C@H](NC(=O)CCCCCCCCCCCCCCCCCCC(=O)O)C(=O)O)NC(=O)[C@H](CCCCN)NC(=O)[C@H](CC(=O)O)NC(=O)[C@H](CC(C)C)NC(=O)[C@](C)(Cc1ccccc1)NC(=O)[C@H](CCCCN)NC(=O)[C@H](CO)NC(=O)[C@@H](NC(=O)[C@H](CC(=O)O)NC(=O)[C@H](CO)NC(=O)[C@@H](NC(=O)[C@H](Cc1ccccc1)NC(=O)[C@@H](NC(=O)CNC(=O)[C@H](CCC(N)=O)NC(=O)C(C)(C)NC(=O)[C@@H](N)Cc1c[nH]cn1)[C@@H](C)O)[C@@H](C)O)C(C)C)C(C)C)C(=O)N[C@@H](CC(C)C)C(=O)NC(C)(C)C(=O)N[C@@H](CCC(=O)O)C(N)=O
As for B4, the “hGLP-1R EC50 (pM)” value in experiment [1] stood at 55.9 pM. The “hGluc-R EC50 (pM)” value in experiment [2] was 30.3 pM.

As for H[Aib]QGTFTSDVSK[αMeF]LDRK([AEEA-AEEA-γGlu-C20 diacid])RARDFVQWLL[Aib]E-NH2 [Peptide 471], the “hGLP-1R EC50 (pM)” value in experiment [1] was found to be 102 pM. Besides, the “hGluc-R EC50 (pM)” value in experiment [2] is 63.6 pM.

B5: Peptide 469 (peptide)
peptide: H[Aib]QGTFTSDVSK[αMeF]LDTK([AEEA-AEEA-γGlu-γGlu-C20 diacid])RAQDFVQWLLE[Aib]G-NH2
modifications: N-terminus assumed
SMILES: CC(C)C[C@H](NC(=O)[C@H](Cc1c[nH]c2ccccc12)NC(=O)[C@H](CCC(N)=O)NC(=O)[C@@H](NC(=O)[C@H](Cc1ccccc1)NC(=O)[C@H](CC(=O)O)NC(=O)[C@H](CCC(N)=O)NC(=O)[C@H](C)NC(=O)[C@H](CCCNC(=N)N)NC(=O)[C@H](CCCCNC(=O)COCCOCCNC(=O)COCCOCCNC(=O)CC[C@H](NC(=O)CC[C@H](NC(=O)CCCCCCCCCCCCCCCCCCC(=O)O)C(=O)O)C(=O)O)NC(=O)[C@@H](NC(=O)[C@H](CC(=O)O)NC(=O)[C@H](CC(C)C)NC(=O)[C@](C)(Cc1ccccc1)NC(=O)[C@H](CCCCN)NC(=O)[C@H](CO)NC(=O)[C@@H](NC(=O)[C@H](CC(=O)O)NC(=O)[C@H](CO)NC(=O)[C@@H](NC(=O)[C@H](Cc1ccccc1)NC(=O)[C@@H](NC(=O)CNC(=O)[C@H](CCC(N)=O)NC(=O)C(C)(C)NC(=O)[C@@H](N)Cc1c[nH]cn1)[C@@H](C)O)[C@@H](C)O)C(C)C)[C@@H](C)O)C(C)C)C(=O)N[C@@H](CC(C)C)C(=O)N[C@@H](CCC(=O)O)C(=O)NC(C)(C)C(=O)NCC(N)=O
B5: the “hGLP-1R EC50 (pM)” value in experiment [1] was 255 pM. The “hGluc-R EC50 (pM)” value in experiment [2] stood at 538 pM.

As for H[Aib]QGTFTSDVSK[αMeF]LDTK([AEEA-AEEA-γGlu-γGlu-C18 diacid])RAQDFVQWLLE[Aib]G-NH2 [Peptide 468], the “hGLP-1R EC50 (pM)” value in experiment [1] was 67.5 pM. Also, in experiment [2], the “hGluc-R EC50 (pM)” value came out at 292 pM.
